Our source for the binding values is publication PMC7876045.

The data set concerns the target RNAP sigma70 holoenzyme (Esigma70) (Escherichia coli) (UniProt P0A7Z4+P0A8V2+P0A8T7+P0A800+P00579). Description: KMnO4 footprinting. The conditions noted are these: 40 mM Tris-HCl pH 8.0, 1 mM DTT, 0.1 mg/ml BSA, 10 mM MgCl2, 50 mM KCl, 37 C (transcription buffer); 150 nM Esigma70, sample mixed 1:1 with 20 mM KMnO4 for ….

As to “ATCGCCAGCGCGCGATGATGTTCCGAAGACTATAAGGCATGTTATAGTCTGGATTATATTGAGGCAAGTCACCCTCCCATTTATTCAGAGTAAAAGTCTATTCTGTGATAAATGGC (double strand) [minC promoter (G1d) permanganate template]”, the binding result is given as “binds”.

For “ACCTCGGTATGCCTTGTGACTGGCTTGACAAGCTTTTCCTCAGCTCCGTAAACTCCTTTCAGTGGGAAATTGTGGGGCAAAGTGGGAATAAGGGGTGAGGCTGGCATGTTCCGGGGAGCAA (double strand) [mraZ promoter (G1p) permanganate template]”, the binding entry was “binds”.
